In the RNAGym collection of RNA variant scans (doi:10.1093/molbev/msab373):

B1: Azoarcus group I ribozyme (parent)
chain: GUGCCUUGCGCCGGGAAACCACGCAAGGGAUGGUGUCAAAUUCGGCGAAACCUAAGCGCCCGCCCGGGCGUAUGGCAACGCCGAGCCAAGCUUCGGCGCCUGCGCCGAUGAAGGUGUAGAGACUAGACGGCACCCACCUAAGGCAAACGCUAUGGUGAAGGCAUAGUCCAGGGAGUGGCGAAAGUCACACAAACCGG

Variants of: B1
Test: reverse-splicing fitness (ratio to wild type); higher = more active; in vitro selection; Mg2+ level not given
Procedure, shortened: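 An in vitro group I ribozyme library with randomized positions was T7-transcribed and gel-purified. In triplicate, 10 pmol RNA in EPPS pH 7.5 was reacted with 50 pmoles of a 30-nt RNA substrate for 1 h at 37 °C across several added MgCl2 levels (1–48 mM), then stopped with EDTA. Products were reverse transcribed from a substrate-complementary primer, PCR-amplified and sequenced (HiSeq 4000). Fitness is a variant's read proportion after selection over that before, normalised to wild type.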

Row | Variant | reverse-splicing fitness
1 | C82G A111C A145C C150U C169U U176C | 0.0131
2 | C82G A111C A145C C150U C169U U176A | 0.013
3 | C82G A111C A120U C150G C169A | 0.00763
4 | C82G A111C A120U C150G C169U | 0.00609
5 | C82G A111C A120U C150G C169G | 0.00669
6 | C82G A111C A145U C150G C169A U176C | 0.0126
7 | C82G A111C A145U C150G C169A U176A | 0.00956
8 | C82G A111C A145U C150G C169A U176G | 0.00734
9 | C82G A111C C169G | 0.00928
10 | C82G A111C C169A | 0.00871
11 | C82G A111C C169U | 0.0148
12 | C82G A111C A145G C150G C169A U176A | 0.0115
13 | C82G A111C A145G C150G C169A U176C | 0.0129
14 | C82G A111C A145G C150G C169A U176G | 0.00829
15 | C82G A111C A120U U176G | 0.00466
16 | C82G A111C A120U U176C | 0.0175
17 | C82G A111C A120U U176A | 0.0113
18 | C82G A111C C169G U176G | 0.00724
19 | C82G A111C C169G U176C | 0.0255
20 | C82G A111C C169G U176A | 0.0182
21 | C82G A111C A145C C150G C169U U176A | 0.00717

Row | Variant | reverse-splicing fitness
22 | C82G A111C A145C C150G C169U U176C | 0.0102
23 | C82G A111C A145C C150G C169U U176G | 0.0071
24 | C82G A111C A120U C150U U176A | 0.00878
25 | C82G A111C A120U C150U U176G | 0.00397
26 | C82G A111C A120U C150U U176C | 0.0132
27 | C82G A111G A120C | 0.0886
28 | C82G A111G A120C A145C C150A C169A U176G | 0.00653
29 | C82G A111G A120C A145C C150A C169A U176A | 0.0183
30 | C82G A111G A120C A145C C150A C169A U176C | 0.00849
31 | C82G A111G A120C A145C C150G | 0.0108
32 | C82G A111G A120C A145C C150A | 0.011
33 | C82G A111C A145U C169G U176A | 0.014
34 | C82G A111C A145U C169G U176G | 0.00766
35 | C82G A111C A145U C169G U176C | 0.0169
36 | C82G A111C C150G U176A | 0.00967
37 | C82G A111C C150G U176G | 0.00449
38 | C82G A111C C150G U176C | 0.0159
39 | C82G A111C A145G C150A C169U U176G | 0.00863
40 | C82G A111C A145G C150A C169U U176A | 0.0153
41 | C82G A111C A145G C150A C169U U176C | 0.0161
42 | C82G A111C A120U C150G C169A U176A | 0.00878

Row | Variant | reverse-splicing fitness
43 | C82G A111C A120U C150G C169A U176G | 0.00331
44 | C82G A111C A120U C150G C169A U176C | 0.0071
45 | C82G A111G A120C A145C | 0.0798
46 | C82G A111C A145C C150A U176G | 0.00879
47 | C82G A111C A145C C150A U176A | 0.0144
48 | C82G A111C A145C C150A U176C | 0.0188
49 | C82G A111C A145C C150A C169U U176A | 0.0135
50 | C82G A111C A145C C150A C169U U176G | 0.0092
51 | C82G A111C A145C C150A C169U U176C | 0.0122
52 | C82G A111C A145C C169U U176G | 0.00741
53 | C82G A111C A145C C169U U176A | 0.018
54 | C82G A111C A145C C169U U176C | 0.016
55 | C82G A111G A120C A145C C150A C169U U176A | 0.0148
56 | C82G A111G A120C A145C C150A C169U U176G | 0.00668
57 | C82G A111G A120C A145C C150A C169U U176C | 0.0126
58 | C82G A111C A145U C150G C169G U176C | 0.00714
59 | C82G A111C A145U C150G C169G U176A | 0.00806
60 | C82G A111C A145U C150G C169G U176G | 0.00802
61 | C82G A111C A145G C150G C169G | 0.00707
62 | C82G A111C A145G C150G C169A | 0.0091
63 | C82G A111C A145G C150G C169U | 0.0089

Row | Variant | reverse-splicing fitness
64 | C82G A111C A120U C169A U176C | 0.00457
65 | C82G A111C A120U C169A U176G | 0.00246
66 | C82G A111C A120U C169A U176A | 0.00425
67 | C82G A111C A145G C150U C169G U176A | 0.0107
68 | C82G A111C A145G C150U C169G U176G | 0.00611
69 | C82G A111C A145G C150U C169G U176C | 0.0159
70 | C82G A111G A120C A145C C150G C169A | 0.00872
71 | C82G A111C A145C | 0.29
72 | C82G A111C A145U | 0.283
73 | C82G A111C A145G | 0.289
74 | C82G A111C A145G C150A U176C | 0.0396
75 | C82G A111C A145G C150A U176G | 0.0116
76 | C82G A111C A145G C150A U176A | 0.0244
77 | C82G A111C C150G C169A | 0.00894
78 | C82G A111C C150G C169U | 0.00898
79 | C82G A111C C150G C169G | 0.00655
80 | C82G A111C A145U C150U | 0.172
81 | C82G A111C A145U C150G | 0.0245
82 | C82G A111C A145U C150A | 0.0253
83 | C82G A111C A145C C150U C169G U176A | 0.0245
